Reference: US20110287023A1

Biological target: HMG1 purified from calf (bovine) thymus (bovine) (UniProt P10103)
Experiment: cell-based or functional assay

Chain of HMG1 purified from calf (bovine) thymus (bovine) (P10103 2-215 limits assumed): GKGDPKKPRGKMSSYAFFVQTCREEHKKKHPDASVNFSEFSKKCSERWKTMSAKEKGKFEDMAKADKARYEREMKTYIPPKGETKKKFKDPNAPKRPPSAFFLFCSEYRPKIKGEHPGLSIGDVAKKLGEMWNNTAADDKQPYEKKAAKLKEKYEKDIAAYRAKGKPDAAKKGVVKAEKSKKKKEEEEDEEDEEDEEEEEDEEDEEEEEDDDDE

## RAGE-Fc fusion protein (species not stated)
  IFN-α release (HMGB/CpG-A mediated enhanced TLR9 signaling): > 95%
